# Source: US5039791A, “Peptide fragments of tissue plasminogen activator” (Monsanto Company, priority 1989, dated 1991)
# Where no end group is shown, it is not given here.
# Molecular target: T1, fibrin (Homo sapiens, UniProt P02671+P02675+P02679)
# T1 construct: purchased Kabi Vitrum
# T1 sequence (P02671 20-644 isoform P02671-2 limits assumed): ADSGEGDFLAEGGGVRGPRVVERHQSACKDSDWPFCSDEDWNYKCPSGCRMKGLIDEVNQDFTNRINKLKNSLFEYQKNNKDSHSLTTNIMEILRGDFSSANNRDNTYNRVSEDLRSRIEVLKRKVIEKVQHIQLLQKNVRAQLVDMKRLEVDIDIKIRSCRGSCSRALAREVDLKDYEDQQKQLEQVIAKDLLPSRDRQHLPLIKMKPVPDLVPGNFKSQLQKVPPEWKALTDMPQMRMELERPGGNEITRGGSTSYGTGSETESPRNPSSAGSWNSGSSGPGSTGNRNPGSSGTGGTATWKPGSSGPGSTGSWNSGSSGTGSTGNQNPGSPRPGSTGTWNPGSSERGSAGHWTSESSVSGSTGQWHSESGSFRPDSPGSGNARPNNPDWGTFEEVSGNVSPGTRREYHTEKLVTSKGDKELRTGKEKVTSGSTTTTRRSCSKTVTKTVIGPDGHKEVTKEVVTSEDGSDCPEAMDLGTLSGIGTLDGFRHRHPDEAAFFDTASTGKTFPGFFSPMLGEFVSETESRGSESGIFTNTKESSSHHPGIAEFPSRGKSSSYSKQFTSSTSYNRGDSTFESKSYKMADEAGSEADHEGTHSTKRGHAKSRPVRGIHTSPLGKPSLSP
# T1 sequence (P02675 45-491 limits assumed): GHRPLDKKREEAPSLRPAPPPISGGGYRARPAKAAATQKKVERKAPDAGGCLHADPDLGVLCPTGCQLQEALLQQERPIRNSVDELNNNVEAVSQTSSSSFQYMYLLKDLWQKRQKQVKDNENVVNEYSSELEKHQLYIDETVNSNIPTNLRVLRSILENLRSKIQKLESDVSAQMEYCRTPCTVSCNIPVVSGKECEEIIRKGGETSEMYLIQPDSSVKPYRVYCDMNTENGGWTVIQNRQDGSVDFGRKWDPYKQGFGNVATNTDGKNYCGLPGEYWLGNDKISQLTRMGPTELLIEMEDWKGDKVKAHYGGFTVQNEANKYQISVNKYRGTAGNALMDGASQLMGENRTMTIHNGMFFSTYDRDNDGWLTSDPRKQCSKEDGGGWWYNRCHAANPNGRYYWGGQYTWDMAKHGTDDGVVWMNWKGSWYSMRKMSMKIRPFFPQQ
# T1 sequence (P02679 27-437 isoform P02679-2 limits assumed): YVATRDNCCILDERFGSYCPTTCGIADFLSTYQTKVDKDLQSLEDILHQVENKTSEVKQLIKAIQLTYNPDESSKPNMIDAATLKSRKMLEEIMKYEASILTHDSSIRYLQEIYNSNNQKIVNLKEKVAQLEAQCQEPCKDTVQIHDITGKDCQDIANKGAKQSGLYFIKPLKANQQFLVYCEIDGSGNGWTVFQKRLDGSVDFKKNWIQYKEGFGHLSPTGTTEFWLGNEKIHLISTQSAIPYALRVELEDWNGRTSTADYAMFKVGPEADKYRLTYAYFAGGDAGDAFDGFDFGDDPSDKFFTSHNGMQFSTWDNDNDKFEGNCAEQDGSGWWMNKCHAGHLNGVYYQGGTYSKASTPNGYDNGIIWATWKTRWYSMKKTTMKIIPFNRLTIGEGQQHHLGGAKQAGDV
# Assay: Fibrin binding: binding of tPA to fibrin, tPA antigen in supernatant by ELISA
# Details: 15 μg/ml peptide; 200 ng/ml single chain melanoma tPA, 200 μg/ml human fibrinogen; no peptide = 48
# Experimental: Binding of tPA to fibrin was measured using the conventional method of Rijken et al., J. Biol. Chem. 257, 2920-2925 (1982). This method involves mixing thrombin with a solution containing tPA and fibrinogen, centrifuging the resulting clot and measuring the concentration of tPA antigen in the supernatant. In a final volume of 200 μl, the following were combined: 200 ng/ml single chain melanoma tPA, 200 μg/ml human fibrinogen, 15 μg/ml tPA peptide, 1.1 mg/ml bovine serum albumin, 0.55 mg/ml bovine gamma globulin and 10 mM ε-amino caproic acid in PBSAT. Controls omitted fibrinogen, peptide or both. Mixtures were clotted by the addition of 1 unit/ml bovine thrombin, incubated one hour at room temperature and centrifuged. tPA antigen in the supernatant was measured by conventional ELISA and the percentage bound calculated by difference using the antigen level of a control mixture with no fibrinogen as 0% bound. […] An ELISA assay kit for tPA and PAI-1 was purchased from American Diagnostica Inc. and assays were performed according to printed protocols supplied by the manufacturer with the kit except that a single lot of melanoma tPA from American Diagnostica Inc. (product 111, lot 47-01) was used as the antigen standard throughout this work and 5.0 mg/ml of BSA and 2.5 mg/ml of bovine gamma globulin were included in ELISA buffers.
row,Substance,% Bound (binding of tPA to fibrin) [%]
1,"CDVPSCSTCGLRQYSQPQFRIKGGL-amide (CDVPSCSTCGLRQYSQPQFRIKGGL-NH2; cysteine pairing not given here) [Peptide 169, 25 amino acid synthetic peptide amide fragment of native human tPA]",55
2,"CNSGRAQCHSVPVKSCSEPRCFNGG-amide (CNSGRAQCHSVPVKSCSEPRCFNGG-NH2; cysteine pairing not given here) [Peptide 147, 25 amino acid synthetic peptide amide fragment of native human tPA]",55
3,"DGDAKPWCHVLKNRRLTWEYCDVPS-amide (DGDAKPWCHVLKNRRLTWEYCDVPS-NH2; cysteine pairing not given here) [Peptide 167, 25 amino acid synthetic peptide amide fragment of native human tPA]",50
4,"EFCSTPACSEGNSDCYFGNGSAYRG [Peptide 160, 25 amino acid synthetic peptide fragment of native human tPA]",56
5,ERFPPHHLTVILGRTYRVVPGEEEQ-NH2 [Peptide 176],53
6,ERLKEAHVRLYPSSRCTSQHLLNRT-NH2 [Peptide 186],50
7,GNSDCYFGNGSAYRGTHSLTESGAS-NH2 [Peptide 161],57
8,"LCAGDTRSGGPQANLHDACQGDSGG-amide [Peptide 189, 25 amino acid synthetic peptide amide fragment of native human tPA]",50
9,"LKNRRLTWEYCDVPSCSTCGLRQYS [Peptide 168, 25 amino acid synthetic peptide fragment of native human tPA]",54
10,LLNRTVTDNMLCAGDTRSGGPQANL-NH2 [Peptide 188],52
11,"LRSNRVEYCWCNSGRAQCHSVPVKS-amide (LRSNRVEYCWCNSGRAQCHSVPVKS-NH2; cysteine pairing not given here) [Peptide 146, 25 amino acid synthetic peptide amide fragment of native human tPA]",54
12,"LYFSDFVCQCPEGFAGKCCEIDTRA [Peptide 150, 25 amino acid synthetic peptide fragment of native human tPA]",52
13,"PEGFAGKCCEIDTRATCYEDQGISY-amide (PEGFAGKCCEIDTRATCYEDQGISY-NH2; cysteine pairing not given here) [Peptide 151, 25 amino acid synthetic peptide amide fragment of native human tPA]",53
14,"QESSVVRTVCLPPADLQLPDWTECE-amide [Peptide 182, 25 amino acid synthetic peptide amide fragment of native human tPA]",52
15,"QLKSDSSRCAQESSVVRTVCLPPAD-amide (QLKSDSSRCAQESSVVRTVCLPPAD-NH2; cysteine pairing not given here) [Peptide 181, 25 amino acid synthetic peptide amide fragment of native human tPA]",49
16,"QQHQSWLRPVLRSNRVEYCWCNSGR-amide (QQHQSWLRPVLRSNRVEYCWCNSGR-NH2; cysteine pairing not given here) [Peptide 145, 25 amino acid synthetic peptide amide fragment of native human tPA]",56
17,RRGARSYQVICRDEKTQMIYQQHQS [Peptide 143],57
18,SMILIGKVYTAQNPSAQALGLGKHN-NH2 [Peptide 164],53
19,SPSQEIHARFRRGARSYQVICRDEK [Peptide 142],58
20,TAESGAECTNWNSSALAQKPYSGRR-NH2 [Peptide 154],56
21,WNSSALAQKPYSGRRPDAIRLGLGN [Peptide 155],54
22,"YPSSRCTSQHLLNRTVTDNMLCAGD-amide [Peptide 187, 25 amino acid synthetic peptide amide fragment of native human tPA]",51
23,YSGRRPDAIRLGLGNHNYCRNPDRD-NH2 [Peptide 156],52
24,"YVFKAGKYSSEFCSTPACSEGNSDC-amide (YVFKAGKYSSEFCSTPACSEGNSDC-NH2; cysteine pairing not given here) [Peptide 159, 25 amino acid synthetic peptide amide fragment of native human tPA]",54
